Data set [1] deals with Endogenous Ser65-phosphorylated BIMEL in cerebellar granule neurons (UniProt O88498).
Data set [2] addresses T1, Recombinant GST-Pin1 (UniProt Q13526 1-163).
T1 construct: Bait in GST pulldown assays; not shown: glutathione S-transferase (GST) fusion partner
As to the kind of experiment: GST-Pin1 pulldown from 293T lysates, anti-FLAG immunoblot.

Chain of Endogenous Ser65-phosphorylated BIMEL in cerebellar granule neurons (O88498 whole entry): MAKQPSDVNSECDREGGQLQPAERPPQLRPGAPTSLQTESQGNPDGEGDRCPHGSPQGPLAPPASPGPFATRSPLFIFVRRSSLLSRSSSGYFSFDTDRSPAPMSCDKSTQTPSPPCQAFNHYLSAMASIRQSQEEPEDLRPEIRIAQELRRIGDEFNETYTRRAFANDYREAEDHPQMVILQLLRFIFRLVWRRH
T1 sequence (Q13526 whole entry, the tested form may be a part): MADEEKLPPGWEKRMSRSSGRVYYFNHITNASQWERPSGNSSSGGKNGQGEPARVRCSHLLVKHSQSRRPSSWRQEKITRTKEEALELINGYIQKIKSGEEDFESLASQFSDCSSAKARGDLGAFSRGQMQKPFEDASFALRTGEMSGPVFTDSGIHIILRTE

Take “Endogenous Pin1 in cerebellar granule neurons”: in data set [1], the “BIMEL protein levels in granule neurons after Pin1 RNAi lentivirus (immunoblot)” value is listed as 46±1.5% reduction.

B1: FLAG-tagged JIP3 fragment 144-241 (other, UniProt Q9ESN9 144-241, looked up)
chain: ADQISRLEERESEMKKEYNALHQRHTEMIQTYVEHIERSKMQQVGGSGQTESSLPGRSRKERPTSLNVFPLADGMVRAQMGGKLVPAGDHWHLSDLGQ
notes: Expressed in 293T cells; not shown: 3xFLAG tag of the 3xFLAG CMV-7.1 vector
Consider B1, for which the binding result in data set [2] was “no binding”.

The record behind these values is patent US20070282017A1 (Harvard, published 2007).
